B1: human HS1 1054 (14-3-3β) fused with GAL4 activation domain (other)
chain: MTMDKSELVQKAKLAEQAERYDDMAAAMKAVTEQGHELSNEERNLLSVAYKNVVGARRSSWRVISSIEQKTERNEKKQQMGKEYREKIEAELQDICNDVLELLDKYLIPNATQPESKVFYLKMKGDYFRYLSEVASGDNKQTTVSNSQQAYQEAFEISKKEMQPTHPIRLGLALNFSVFYYEILNSPEKACSLAKTAFDEAIAELDTLNEESYKDSTLIMQLLRDNLTLWTSENQGDEGDAGEGEN
B2: 14-3-3β (not fused to GAL4) (other)
chain: B1 chain
B3: human P1A2 (14-3-3ζ) fused with GAL4 activation domain (other)
chain: MDKNELVQKAKLAEQAERYDDMAACMKSVTEQGAELSNEERNLLSVAYKNVVGARRSSWRVVSSIEQKTEGAEKKQQMAREYREKIETELRDICNDVLSLLEKFLIPNASQAESKVFYLKMKGDYYRYLAEVAAGDDKKGIVDQSQQAYQEAFEISKKEMQPTHPIRLGLALNFSVFYYEILNSPEKACSLAKTAFDEAIAELDTLSEESYKDSTLIMQLLRDNLTLWTSDTQGDEAEAGEGGEN
B4: 14-3-3ζ (not fused to GAL4) (other)
chain: B3 chain

Experiments:
[1] = target: GAL4 DNA-binding domain alone (Saccharomyces cerevisiae (strain ATCC …, UniProt P04386)); assay: yeast two-hybrid
Source text: However, interaction between 14-3-3β and the bcr gene product, which itself has endogenous kinase activity, was detected.
The Raf-1 coding sequence was isolated by PCR amplification of a human placental cDNA library purchased from Stratagene (San Diego, Calif.) as described by MacDonald et al. (1993) *Mol. Cell Biol.* 13: 16.15. For use in the two hybrid screen (Chien et al. (1991) *Proc. Natl. Acad. Sci. USA* 88: 9578), the Raf-1 gene was fused to sequence encoding the GAL4-DNA binding domain by digesting pGEM Raf-I with NcoI and SacI to liberate the Raf-1 coding sequence and subcloning into the pGBT8 plasmid (Hannon et al. (1993) *Genes & Dev.* 7: 2378) digested also with Nco I and Sac I. Yeast (*S. cerevisiae*) of strain YGH-1 (Hannon et al. (1993) op.cit.) were transformed with pGBT8 Raf1, and the resultant strain was transformed with a HeLa cell cDNA library encoding fusions with the GAL4 activation domain in the plasmid pGAD (Chien et al. (1991) *Proc. Natl. Acad. Sci.* (USA) 88: 9578). The YGH-1 strain contains two reported genes, HIS3 and lacZ, which allow selection of cDNAs encoding proteins capable of interacting with the gene of interest, in this case, Raf-1. The first selection was by the ability to grow on plates lacking histidine. Positive colonies were then tested for production of β-galactodidase using X-gal as substrate as described by Hannon et al. op.cit. […]

[2] = target: full-length Raf-1 (wildtype Raf) (human); assay: cell-based or functional assay
[3] = target: Ras-binding domain of Raf (aa51-aa131) (human); assay: ELISA

| Binder | binding result [1] | Raf activity in cells containing the 14-3-3 proteins [2] | binding result [3] |
| --- | --- | --- | --- |
| B1 | no binding | – | – |
| B2 | – | 2 fold increase over background | no binding |
| B3 | no binding | – | – |
| B4 | – | 2 fold increase over background | – |

Reference: patent publication US5597719, “Interaction of RAF-1 and 14-3-3 proteins” (Onyx Pharmaceuticals, Inc., dated 1997)
